The results in this text go back to patent US8071348B2, “Protein tyrosine phosphatase substrate-trapping double mutant and uses thereof” (Albert Einstein College of Medicine of Yeshiva University, priority 2002, dated 2011).

Broadly, the Kd is the free concentration of one partner at which half of the binding sites on the other are occupied at equilibrium, for simple one-to-one binding. A high value points to a looser complex.

The target in assay [1] is Ac-Asp-Ala-Asp-Glu-F2Pmp-Leu-NH2. Description: Isothermal titration calorimetry, binding of PTP1B and mutants to F2Pmp peptide. Conditions: ITC, 25° C. and pH 7.0; data from this study. Background: ITC needs no label: the signal is the heat of the interaction.
The subject of assay [2] is EGF receptor. Put plainly: Substrate pull-down: anti-HA immunoprecipitation of PTP1B forms from EGF-treated COS1 cells, anti-pTyr/anti-EGFR blot. It is filed as cell-based, Monkey. On the procedure:
FIG. 5 illustrates immunoprecipitation (IP) and Western blots (WB) of the phospho-EGF receptor, and other less abundant PTP1B substrates, by the PTP1B substrate-trapping mutants. Wild-type PTP1B, D181A, D181A/Q262A, D181A/C215S, C215S, or blank vector (pJ3H) was used to transfect COS1 cells (4 μg plasmid/60 mm dish). The cells were maintained at 37° C. for 44-48 h. Twenty minutes before harvesting the cells, 20 ng/ml EGF was added to each dish. The PTP1B proteins were precipitated from the cell lysates using anti-hemagglutinin (anti-HA) antibody-conjugated agarose beads from the cell lysates (500 μg total protein) at 4° C. overnight. The beads were washed 3 times with the lysis buffer, mixed with 2×SDS sample buffer, and then boiled for 5 min. The immunocomplexes were resolved by SDS-PAGE, and transferred onto a nitrocellulose membrane. The membrane was probed with anti-pTyr HRP-conjugated antibody (lower panel). The membrane was then stripped and reblotted with anti-EGFR rabbit polyclonal antibody (middle panel). Thereafter, the membrane was further stripped, and re-probed with anti-HA HRP conjugate (upper panel).
The hemagglutinin-tagged (HA-tagged) full-length human wild-type PTP1B in pJ3H expression vector was a gift from Dr. Chemoff (30). The HA-tagged PTP1B mutants, C215S, D181A, D181A/C215S, and D181A/Q262A, were generated by PCR reactions, according to the standard procedure of the Quick-Change™ site-directed mutagenesis kit (Stratagene), using pJ3H-HA-PTP1B as a template. All mutations were verified by DNA sequencing.
Monkey kidney COS1 cells (ATCC: CRL-1650) were maintained in Dulbecco's modified Eagle's minimum essential medium (DMEM), supplemented with 10% fetal bovine serum (Life Technologies, Inc.), penicillin (50 units/ml), streptomycin (50 μg/ml), and L-glutamine (2 mM) under a humidified atmosphere containing 5% CO2. […] The efficiency of transfection, as assessed by 5-bromo-4-chloro-3-indolyl-β-D galactoside (X-Gal) staining of pCMV-β-gal-transfected (β-Gal staining kit, Invitrogen) COS cells, was 25%. […]

[ ]: non-standard residue; d: D form. F2Pmp = N[C@@H](Cc1ccc(C(F)(F)P(=O)(O)O)cc1)C(=O)O

B1: PTP1B/D181A/Q262A, catalytic domain (residues 1 to 321) (enzyme, human, UniProt P18031 1-321, looked up)
chain: MEMEKEFEQIDKSGSWAAIYQDIRHEASDFPCRVAKLPKNKNRNRYRDVSPFDHSRIKLHQEDNDYINASLIKMEEAQRSYILTQGPLPNTCGHFWEMVWEQKSRGVVMLNRVMEKGSLKCAQYWPQKEEKEMIFEDTNLKLTLISEDIKSYYTVRQLELENLTTQETREILHFHYTTWPAFGVPESPASFLNFLFKVRESGSLSPEHGPVVVHCSAGIGRSGTFCLADTCLLLMDKRKDPSSVDIKKVLLEMRKFRMGLIATADQLRFSYLAVIEGAKFIMGDSSVQDQWKELSHEDLEPPPEHIPPPPRPPKRILEPHN
notes: range 1-321; Used in vitro (ITC, kinetics); also called PTP1B substrate-trapping double mutant
Turning to B1, the affinity in assay [1], expressed as Kd, was 6.8 ± 2.3 nM. Further, the “affinity for EGFR in in vivo substrate-trapping experiments, versus PTP1B/D181A or PTP1B/C215S” value in assay [2] is reported as “much higher affinity”. The “quantity of tyrosine-phosphorylated EGF receptor co-precipitated, fold greater than with D181A” value in assay [2] (EGF 20 ng/ml for 20 min, anti-HA immunoprecipitation (FIG. 5)) was “more than 3 fold”. Also, in assay [2] (anti-HA immunoprecipitation, not visible in D181A or C215S samples (FIG. 5)), the “trapping of other tyrosine phosphorylated proteins (P160, P120, P70, P60)” value is listed as “trapped several novel, less-abundant tyrosine phosphorylated proteins”.
